# Source: patent US20150203579A1 (Regeneron, published 2015)
# Read-outs that look alike come from different tables or passages of the source.
# T1: monkey PD-1 with mFc (monkey)
# T1 construct: also called monkey PD-1-mFc; monkey PD-1 dimer
# T1 chain: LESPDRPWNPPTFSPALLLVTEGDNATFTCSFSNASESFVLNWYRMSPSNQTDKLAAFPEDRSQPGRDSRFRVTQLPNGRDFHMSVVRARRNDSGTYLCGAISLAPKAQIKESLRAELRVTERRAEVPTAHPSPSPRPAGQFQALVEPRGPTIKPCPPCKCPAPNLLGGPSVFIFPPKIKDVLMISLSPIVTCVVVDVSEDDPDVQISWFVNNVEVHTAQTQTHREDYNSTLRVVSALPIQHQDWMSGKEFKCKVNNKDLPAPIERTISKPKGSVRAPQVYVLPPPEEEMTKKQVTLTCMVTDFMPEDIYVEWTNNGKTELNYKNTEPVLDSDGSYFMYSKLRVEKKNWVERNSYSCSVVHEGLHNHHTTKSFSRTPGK
# How the values were obtained:
# [1] = target: PD-1 chimera: extracellular domain of human PD-1 with trans-membrane and cytoplasmic domains of human CD300a, … (human, UniProt Q9UGN4 181-299, limits assumed); assay: cell-based or functional assay
# [2] = target: T2, recombinant human PD-1 expressed with a C-terminal myc-myc-hexahistidine tag (human); assay: SPR (Biacore), mAb captured, hPD-1-MMH injected, 25 C;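 note: rate constants obtained by fitting sensorgrams to a 1:1 binding model, KD derived as kd/ka and half-life as ln2/(60·kd) in minutes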
# T2 construct: also called hPD-1-MMH; human PD-1-MMH
# [3] = target: T3, full length human PD-1 on HEK293/hPD-1 cells (human, UniProt Q15116 25-288); assay: FACS, 100 nM mAb
# [4] = target: T4, PD-1 chimera: extracellular domain of human PD-1 with trans-membrane and cytoplasmic domains of human CD300a, … (human, UniProt Q9UGN4 181-299, limits assumed); assay: cell-based or functional assay; remark: listed apart in the source
# monkey PD-1 with mFc [5] = target: T1, monkey PD-1 with mFc; assay: SPR, captured mAb, 25 C;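 note: purified anti-PD-1 antibodies tested on Biacore 4000 or T200 instruments, rate constants obtained via 1:1 binding model fit, with KD as kd/ka and half-life as ln2/(60·kd)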
# monkey PD-1 with mFc [6] = target: T1, monkey PD-1 with mFc; assay: SPR, captured mAb, 37 C;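 note: Real-time Biacore surface plasmon resonance biosensor readout of PD-1 reagent binding to purified anti-PD-1 monoclonal antibodies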
# [7] = target: T3, full length human PD-1 on HEK293/hPD-1 …; assay: FACS, 100 nM mAb, HEK293/hPD-1 cells;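 note: antibodies incubated with cells for 15-30 min on ice, bound antibody detected through a secondary F(ab′)2 by flow cytometry, with parental HEK293 cells tested in parallel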
# [8] = target: T3, full length human PD-1 on HEK293/hPD-1 …; assay: FACS dose response, HEK293/hPD-1 cells
# [9] = target: T5, recombinant human PD-1 dimer expressed with a C-terminal mouse IgG2a Fc tag (human); assay: competition ELISA: 1.5 nM hPD-1-mFc to coated hPD-L1-hFc
# T5 construct: also called hPD-1-mFc
# [10] = target: T6, dimeric biotinylated human PD-1 protein with a C-terminal human Fc tag (human, biotinylated (sites not given)); assay: competition ELISA: 200 pM biot-hPD-1-hFc to coated hPD-L1-mFc
# T6 construct: also called biot-hPD-1-hFc
# [11] = target: T7, recombinant human PD-1 expressed with a C-terminal human IgG1 Fc tag (human); assay: SPR Biacore 3000: 100 nM hPD-1.hFc + 500 nM mAb to captured hPD-L1.mFc;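 note: inhibition study with anti-PD-1 mAbs, SPR responses tracked in real time and read at the close of each step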
# T7 construct: also called hPD-1-hFc; hPD1-hFc
# [12] = target: T8, recombinant human PD-L1 expressed with a C-terminal mouse IgG2a Fc tag (human); assay: SPR Biacore 3000: 500 nM mAb alone (no hPD-1.hFc) over captured hPD-L1.mFc surface, control
# T8 construct: also called hPD-L1-mFc; hPD-L1.mFc
# [13] = target: T5, recombinant human PD-1 dimer expressed …; assay: competition ELISA: 1.5 nM hPD-1-mFc to coated hPD-L1-hFc; * below theoretical bottom 7.5E-10 M
# [14] = target: T6, dimeric biotinylated human PD-1 protein …; assay: competition ELISA: 200 pM biot-hPD-1-hFc to coated hPD-L1-mFc; * below theoretical bottom 1.0E-10 M
# [15] = target: T3, full length human PD-1 on HEK293/hPD-1 …; assay: FACS dose response, HEK293/hPD-1 cells; remark: listed apart in the source
# [16] = target: T5, recombinant human PD-1 dimer expressed …; assay: BLI Octet: 100 nM hPD-1-mFc + 500 nM mAb to captured hPD-L1-hFc
# [17] = target: T5, recombinant human PD-1 dimer expressed …; assay: competition ELISA: 100 pM hPD-1-mFc to coated hPD-L2-hFc
# [18] = target: T4, PD-1 chimera: extracellular domain of …; assay: cell-based or functional assay; remark: listed apart in the source
Binder,ratio of MFI HEK293/hPD-1 to HEK293 parental cells [3],Concentration (M) of Antibody at 150% activation [4] [M],Emax mean [%] @ 100 nM [4] [%],100 nM Monkey PD-1-mFc Bound (RU) (monkey PD-1 with mFc [5]),Kd (monkey PD-1 with mFc [5]) [nM],koff (monkey PD-1 with mFc [5]) [s⁻¹],kon (monkey PD-1 with mFc [5]) [M⁻¹ s⁻¹],t1/2 (monkey PD-1 with mFc [5]) [min],100 nM Monkey PD-1-mFc Bound (RU) (monkey PD-1 with mFc [6]),Kd (monkey PD-1 with mFc [6]) [nM],koff (monkey PD-1 with mFc [6]) [s⁻¹],kon (monkey PD-1 with mFc [6]) [M⁻¹ s⁻¹],t1/2 (monkey PD-1 with mFc [6]) [min],MFI [7] [MFI],EC50 [8] [nM],Max Geom. Mean MFI @ 100 nM [8] [MFI],% blocking at 200 nM antibody [9] [%],% blocking at 50 nM antibody [10] [%],EC50 [15] [nM],Max Geom. Mean MFI @ 100 nM [15] [MFI],further results
"H4xH9119P2 (antibody, human IgG4, V domains shown, H4xH: modified human IgG4 Fc) VH: EVQLVESGGGLVQPGRSLRLSCAASGFTFEDYAMHWVRQAPGKGLEWVSGIGWSNVKIGYADSVKGRFTISRDNVRNSLYLQMNSLRTEDTAFYYCVKAYTSMLTLYFDYWGQGTLVTVSS VL: not shown",–,–,–,–,–,–,–,–,–,–,–,–,–,–,–,–,–,–,–,–,"Emax, AP1-Luc signal at 100 nM antibody (% of signal without anti-PD-1 antibody) [1]: 163%; Kd [2]: 15.6 nM; koff [2]: 0.00122 s⁻¹; kon [2]: 78400 M⁻¹ s⁻¹; t½ [2]: 9.5 min"
"H4xH9119P2 (antibody, V domains shown, human IgG4 Fc with 2 or more amino acid changes (US20100331527)) VH: EVQLVESGGGLVQPGRSLRLSCAASGFTFEDYAMHWVRQAPGKGLEWVSGIGWSNVKIGYADSVKGRFTISRDNVRNSLYLQMNSLRTEDTAFYYCVKAYTSMLTLYFDYWGQGTLVTVSS VL: not shown",84,1.11e-08,163,83,1.05,0.000172,163000,67,40,3.17,0.000885,279000,13,9140,0.348,37800,78,96,–,–,% Blocking [11]: 105%; binding of the mixture (RU) [11]: -5 RU; 500 nM of anti-PD-1 monoclonal antibody (RU) [12]: -5 RU; IC50 [13]: 0.2 nM; IC50 [14]: 0.082 nM
"H4H9008P (antibody, human IgG4 S228P, kappa, V domains shown) VH: EVQLVESGGGLVRPGGSLRLSCAASGFTFSTYAMAWVRQTPGKGLEGVSAIGGSGDSTYYVDSVKGRFTISRDNSKSTLFLQMNSLRAEDTAVYYCVKVRNYDGSFDIWGQGTMVTVSS VL: not shown",–,–,–,–,–,–,–,–,–,–,–,–,–,–,–,–,–,–,–,–,"Emax, AP1-Luc signal at 100 nM antibody (% of signal without anti-PD-1 antibody) [1]: 150%"
"H2aM7796N (antibody, V domains shown, human variable regions, mouse IgG2a Fc; also called H2M7796N) VH: QVQLVESGGGVVQPGRSLRLSCAASGFTFSSYGMHWVRQAPGKGLEWVAIIWSDGDSEYNLDSVKGRFTISRDNSKNTLYLQMNSLRVEDSAVYYCARDRDLEDIWGQGTMVTVSS VL: DIQMTQSPSSLSASVGDRVTITCRASQGIRNDLGWYQQKPGKAPKRLIYAASNLQSGVPSRFSGSGSGTEFTLTISSLQPEDFATYYCLQHNSYPLTFGGGTKVEIK",168,–,121,–,–,–,–,–,–,–,–,–,–,49800,–,–,–,60,4.81,14100,IC50 [10]: 1.3 nM; % Blocking [16]: 129%; binding of the mixture (nm) [16]: -0.02 nm
"H2aM7798N (antibody, V domains shown, human variable regions, mouse IgG2a Fc; also called H2M7798N) VH: EVQLLESGGVLVQPGGSLRLSCAASGFTFSNFGMTWVRQAPGKGLEWVSGISGGGRDTYFADSVKGRFTISRDNSKNTLYLQMNSLKGEDTAVYYCVKWGNIYFDYWGQGTLVTVSS VL: DIQMTQSPSSLSASVGDSITITCRASLSINTFLNWYQQKPGKAPNLLIYAASSLHGGVPSRFSGSGSGTDFTLTIRTLQPEDFATYYCQQSSNTPFTFGPGTVVDFR",78.1,7.99e-10,239,–,–,–,–,–,–,–,–,–,–,23400,0.0698,20900,93,100,–,–,% blocking at 100 nM antibody [17]: 100%; IC50 [17]: 0.13 nM; % Blocking [16]: 86%; binding of the mixture (nm) [16]: 0.01 nm; IC50 [13]: 0.68 nM; IC50 [14]: 0.073 nM
"H4H7798N (antibody, human IgG4 S228P, kappa, V domains shown, human IgG4 Fc) VH: EVQLLESGGVLVQPGGSLRLSCAASGFTFSNFGMTWVRQAPGKGLEWVSGISGGGRDTYFADSVKGRFTISRDNSKNTLYLQMNSLKGEDTAVYYCVKWGNIYFDYWGQGTLVTVSS VL: DIQMTQSPSSLSASVGDSITITCRASLSINTFLNWYQQKPGKAPNLLIYAASSLHGGVPSRFSGSGSGTDFTLTIRTLQPEDFATYYCQQSSNTPFTFGPGTVVDFRR",–,1.54e-09,202,93,0.137,6.14e-05,449000,188,88,0.202,0.000127,630000,91,–,–,–,–,–,0.509,20300,Emax mean [%] @ 100 nM [18]: 343%; % Blocking [11]: 106%; binding of the mixture (RU) [11]: -6 RU; 500 nM of anti-PD-1 monoclonal antibody (RU) [12]: -6 RU
"H4xH9048P2 (antibody, V domains shown, human IgG4 Fc with 2 or more amino acid changes (US20100331527)) VH: QVQLVQSGAEVKRPGSSVKVSCKVSGVTFRNFAIIWVRQAPGQGLEWMGGIIPFFSAANYAQSFQGRVTITPDESTSTAFMELASLRSEDTAVYYCAREGERGHTYGFDYWGQGTLVTVSS VL: not shown",70.8,–,138,115,0.754,0.000184,243000,63,84,2.29,0.00113,494000,10,7200,0.668,33700,67,–,–,–,IC50 [9]: 3.3 nM; % blocking at 100 nM antibody [17]: 98%; IC50 [17]: 0.14 nM
"H4H9048P2 (antibody, human IgG4 S228P, kappa, V domains shown, human IgG4 Fc) VH: QVQLVQSGAEVKRPGSSVKVSCKVSGVTFRNFAIIWVRQAPGQGLEWMGGIIPFFSAANYAQSFQGRVTITPDESTSTAFMELASLRSEDTAVYYCAREGERGHTYGFDYWGQGTLVTVSS VL: not shown",–,–,–,–,–,–,–,–,–,–,–,–,–,–,–,–,–,–,1.6,39800,Emax mean [%] @ 100 nM [18]: 134%
